Experimental data published in the Immune Epitope Database (IEDB).

Columns and labels:
Assay in all cases: IEDB peptide-MHC binding, purified MHC/competitive/radioactivity; filed as Kd, often an IC50 or EC50 that approximates it; ≥ and ≤ were set here for values at or beyond the usual limits of such assays
HLA-A*11:01 = biological target: HLA-A*11:01
HLA-A*03:01 = biological target: HLA-A*03:01
HLA-A*31:01 = biological target: HLA-A*31:01
HLA-A*68:01 = biological target: HLA-A*68:01
HLA-A*33:01 = biological target: HLA-A*33:01
[1] = source organism: Vaccinia virus WR
[2] = source organism: Dengue virus 1 Brazil/97-11/1997
[3] = source organism: SARS coronavirus Tor2
[4] = source organism: Dengue virus 4 Philippines/H241/1956
[5] = source organism: Dengue virus 2 Jamaica/1409/1983
[6] = source organism: Dengue virus 3 Martinique/1243/1999
[7] = source organism: Vaccinia virus Copenhagen
[8] = source organism: Mammarenavirus guanaritoense
[9] = source organism: Mammarenavirus brazilense
[10] = source organism: Mammarenavirus machupoense
[11] = source organism: Dengue virus 4 Dominica/814669/1981

ASKKDKLTVY gave a Kd (HLA-A*11:01; [1]) of 1220 nM, a Kd (HLA-A*03:01; [1]) of 6590 nM and a Kd (HLA-A*31:01; [1]) of 5290 nM. For the same sequence, the Kd (HLA-A*68:01; [1]) was no less than 70200 nM and the Kd (HLA-A*33:01; [1]) was no less than 70000 nM.
Sequence TTLSLDYAWK has a Kd (HLA-A*11:01; [2]) of 79.8 nM and a Kd (HLA-A*68:01; [2]) of 13.9 nM.
Sequence LFQLCTFTK has a Kd (HLA-A*11:01; [3]) of 191 nM, a Kd (HLA-A*03:01; [3]) of 438 nM and a Kd (HLA-A*31:01; [3]) of 574 nM. The Kd (HLA-A*68:01; [3]) was 579 nM and the Kd (HLA-A*33:01; [3]) was 875 nM.
ILGGVLHTK showed a Kd (HLA-A*11:01; [1]) of 19.3 nM, a Kd (HLA-A*03:01; [1]) of 1.92 nM and a Kd (HLA-A*31:01; [1]) of 1380 nM. It also gave a Kd (HLA-A*68:01; [1]) of 558 nM and a Kd (HLA-A*33:01; [1]) of 6160 nM.
Work on MGYWIESSK yielded a Kd (HLA-A*03:01; [4]) of 83.9 nM.
For NQATTKTTFK, the Kd (HLA-A*11:01; [3]) was 440 nM, the Kd (HLA-A*03:01; [3]) was 378 nM and the Kd (HLA-A*31:01; [3]) was 4270 nM. For the same sequence, the Kd (HLA-A*68:01; [3]) was 506 nM and the Kd (HLA-A*33:01; [3]) was no less than 26500 nM.
For LLMPILTLTR, the Kd (HLA-A*11:01; [3]) was 199 nM, the Kd (HLA-A*03:01; [3]) was 571 nM and the Kd (HLA-A*31:01; [3]) was 5.53 nM. It also gave a Kd (HLA-A*68:01; [3]) of 89.7 nM and a Kd (HLA-A*33:01; [3]) of 262 nM.
Sequence MLTNAISSR has a Kd (HLA-A*11:01; [1]) of 4110 nM, a Kd (HLA-A*03:01; [1]) of 13.1 nM and a Kd (HLA-A*31:01; [1]) of 9.57 nM. For the same sequence, the Kd (HLA-A*68:01; [1]) was 13.4 nM and the Kd (HLA-A*33:01; [1]) was 237 nM.
QIFNEDTSY was tested, and the Kd (HLA-A*11:01; [1]) was 73.2 nM, the Kd (HLA-A*03:01; [1]) was 3610 nM and the Kd (HLA-A*31:01; [1]) was no less than 77900 nM. The Kd (HLA-A*68:01; [1]) was 6330 nM and the Kd (HLA-A*33:01; [1]) was no less than 77700 nM.
DLPVWLAYR showed a Kd (HLA-A*33:01; [5]) of 4 nM.
Work on IVHSYLKNYK yielded a Kd (HLA-A*11:01; [1]) of 58 nM, a Kd (HLA-A*03:01; [1]) of 97.3 nM and a Kd (HLA-A*31:01; [1]) of 27.5 nM. It also gave a Kd (HLA-A*68:01; [1]) of 257 nM and a Kd (HLA-A*33:01; [1]) of 9720 nM.
GLTPEQKAY was tested, and the Kd (HLA-A*11:01; [1]) was no less than 56300 nM, the Kd (HLA-A*03:01; [1]) was no less than 78000 nM and the Kd (HLA-A*31:01; [1]) was no less than 77900 nM. For the same sequence, the Kd (HLA-A*68:01; [1]) was 15000 nM and the Kd (HLA-A*33:01; [1]) was no less than 77700 nM.
With AAYYFMKFRR the Kd (HLA-A*11:01; [3]) was 132 nM, the Kd (HLA-A*03:01; [3]) was 3050 nM and the Kd (HLA-A*31:01; [3]) was 41 nM. For the same sequence, the Kd (HLA-A*68:01; [3]) was 79.2 nM and the Kd (HLA-A*33:01; [3]) was 277 nM.
Work on EMGANFKADR yielded a Kd (HLA-A*33:01; [6]) of 1540 nM.
Sequence MWSLMYFHR has a Kd (HLA-A*31:01; [6]) of 28.9 nM and a Kd (HLA-A*33:01; [6]) of 1.36 nM.
MLYQLLEAVY showed a Kd (HLA-A*11:01; [1]) of 13700 nM, a Kd (HLA-A*03:01; [1]) of 1460 nM and a Kd (HLA-A*31:01; [1]) of 10800 nM. For the same sequence, the Kd (HLA-A*68:01; [1]) was 3350 nM and the Kd (HLA-A*33:01; [1]) was 15700 nM.
SVLDIISSK showed a Kd (HLA-A*11:01; [7]) of 6.72 nM, a Kd (HLA-A*03:01; [7]) of 23.4 nM and a Kd (HLA-A*31:01; [7]) of 1670 nM. It also gave a Kd (HLA-A*68:01; [7]) of 184 nM and a Kd (HLA-A*33:01; [7]) of 4410 nM.
With NTSVDLYAR the Kd (HLA-A*11:01; [8]) was 2190 nM.
In the case of MQKESDDYIK, the Kd (HLA-A*11:01; [3]) is reported as 364 nM, the Kd (HLA-A*03:01; [3]) is reported as 13200 nM and the Kd (HLA-A*31:01; [3]) is reported as 5790 nM. It also gave a Kd (HLA-A*68:01; [3]) of 1550 nM and a Kd (HLA-A*33:01; [3]) of no less than 70000 nM.
Sequence IAEFVKENER has a Kd (HLA-A*11:01; [1]) of no less than 30700 nM, a Kd (HLA-A*03:01; [1]) of no less than 70100 nM and a Kd (HLA-A*31:01; [1]) of 1690 nM. It also gave a Kd (HLA-A*68:01; [1]) of 169 nM and a Kd (HLA-A*33:01; [1]) of 5580 nM.
For EANASAQTK, the Kd (HLA-A*11:01; [1]) was 2600 nM, the Kd (HLA-A*03:01; [1]) was 1560 nM and the Kd (HLA-A*31:01; [1]) was no less than 56300 nM. For the same sequence, the Kd (HLA-A*68:01; [1]) was 27.3 nM and the Kd (HLA-A*33:01; [1]) was 12500 nM.
In the case of SIENKHQRR, the Kd (HLA-A*11:01; [1]) is reported as 6370 nM, the Kd (HLA-A*03:01; [1]) is reported as no less than 23900 nM and the Kd (HLA-A*31:01; [1]) is reported as 165 nM. The Kd (HLA-A*68:01; [1]) was 627 nM and the Kd (HLA-A*33:01; [1]) was 696 nM.
In the case of FKVAFSKHYK, the Kd (HLA-A*11:01; [9]) is reported as 2140 nM, the Kd (HLA-A*03:01; [9]) is reported as 279 nM and the Kd (HLA-A*31:01; [9]) is reported as 48.3 nM. The Kd (HLA-A*68:01; [9]) was 582 nM and the Kd (HLA-A*33:01; [9]) was 3190 nM.
For TTVITPMLR, the Kd (HLA-A*68:01; [6]) was 11.8 nM and the Kd (HLA-A*33:01; [6]) was 36.7 nM.
In the case of MVLAFITFLR, the Kd (HLA-A*11:01; [4]) is reported as 971 nM, the Kd (HLA-A*31:01; [4]) is reported as 4.34 nM and the Kd (HLA-A*68:01; [4]) is reported as 17.4 nM. The Kd (HLA-A*33:01; [4]) was 22.3 nM.
HVQTKPGLFK was tested, and the Kd (HLA-A*11:01; [4]) was 389 nM and the Kd (HLA-A*03:01; [4]) was 8.44 nM.
In the case of MWSLMYFHRR, the Kd (HLA-A*31:01; [6]) is reported as 11.5 nM and the Kd (HLA-A*33:01; [6]) is reported as 31.2 nM.
Sequence KIKTNDINVR has a Kd (HLA-A*11:01; [1]) of 11300 nM, a Kd (HLA-A*03:01; [1]) of 2910 nM and a Kd (HLA-A*31:01; [1]) of 103 nM. For the same sequence, the Kd (HLA-A*68:01; [1]) was 9080 nM and the Kd (HLA-A*33:01; [1]) was no less than 21000 nM.
Work on LIKFISDNK yielded a Kd (HLA-A*11:01; [1]) of 222 nM, a Kd (HLA-A*03:01; [1]) of 151 nM and a Kd (HLA-A*31:01; [1]) of 120 nM. It also gave a Kd (HLA-A*68:01; [1]) of 1.1 nM and a Kd (HLA-A*33:01; [1]) of 624 nM.
For DWTDGSRGYR, the Kd (HLA-A*31:01; [8]) was 918 nM and the Kd (HLA-A*33:01; [8]) was 1170 nM.
Sequence TIRHMWSVVY has a Kd (HLA-A*11:01; [1]) of 3080 nM, a Kd (HLA-A*03:01; [1]) of 294 nM and a Kd (HLA-A*31:01; [1]) of no less than 57000 nM. For the same sequence, the Kd (HLA-A*68:01; [1]) was 2860 nM and the Kd (HLA-A*33:01; [1]) was no less than 70000 nM.
With DSVKSILKWH the Kd (HLA-A*11:01; [10]) was no less than 69700 nM, the Kd (HLA-A*03:01; [10]) was no less than 70000 nM and the Kd (HLA-A*31:01; [10]) was 2650 nM. It also gave a Kd (HLA-A*68:01; [10]) of no less than 70100 nM and a Kd (HLA-A*33:01; [10]) of no less than 33100 nM.
Sequence MLEGETKLYK has a Kd (HLA-A*11:01; [1]) of 63.4 nM, a Kd (HLA-A*03:01; [1]) of 20.6 nM and a Kd (HLA-A*31:01; [1]) of no less than 50400 nM. It also gave a Kd (HLA-A*68:01; [1]) of 9180 nM and a Kd (HLA-A*33:01; [1]) of no less than 70000 nM.
RLRMDKLQLK was tested, and the Kd (HLA-A*03:01; [5]) was 7.91 nM.
With ILSDIISAEK the Kd (HLA-A*11:01; [1]) was 0.829 nM, the Kd (HLA-A*03:01; [1]) was 0.501 nM and the Kd (HLA-A*31:01; [1]) was 14.5 nM. The Kd (HLA-A*68:01; [1]) was 4.29 nM and the Kd (HLA-A*33:01; [1]) was 1380 nM.
With YVSAIAQTEK the Kd (HLA-A*11:01; [5]) was 311 nM and the Kd (HLA-A*68:01; [5]) was 24 nM.
In the case of KAINVLRGFR, the Kd (HLA-A*31:01; [5]) is reported as 0.824 nM.
Work on STYGWNLVR yielded a Kd (HLA-A*03:01; [5]) of 63.5 nM, a Kd (HLA-A*31:01; [5]) of 3.26 nM and a Kd (HLA-A*68:01; [5]) of 8.81 nM. For the same sequence, the Kd (HLA-A*33:01; [5]) was 2.91 nM.
In the case of VFLRKLTSR, the Kd (HLA-A*31:01; [11]) is reported as 66.8 nM and the Kd (HLA-A*33:01; [11]) is reported as 178 nM.
Work on EAKQPATLR yielded a Kd (HLA-A*68:01; [5]) of 74.8 nM and a Kd (HLA-A*33:01; [5]) of 10.1 nM.
Sequence SYSMCTGKFK has a Kd (HLA-A*33:01; [5]) of 841 nM.
In the case of TSGSPIIDK, the Kd (HLA-A*11:01; source organism: Dengue virus 2 16681-PDK53) is reported as 69.4 nM.
CTGKFKIVK gave a Kd (HLA-A*11:01; [5]) of 98.3 nM.
With DIQQWEPSR the Kd (HLA-A*33:01; [5]) was 113 nM.
Sequence LTWLGLNSR has a Kd (HLA-A*31:01; [2]) of no less than 63300 nM and a Kd (HLA-A*33:01; [2]) of 43.8 nM.
FMALVAFLR showed a Kd (HLA-A*31:01; [5]) of 16.9 nM, a Kd (HLA-A*68:01; [5]) of 50.6 nM and a Kd (HLA-A*33:01; [5]) of 10.7 nM.
For IMQAGKRSLR, the Kd (HLA-A*31:01; [5]) was 5.8 nM and the Kd (HLA-A*33:01; [5]) was 219 nM.
Sequence LINRFTMRHK has a Kd (HLA-A*03:01; source organism: Dengue virus 2 Peru/IQT2913/1996) of 14.1 nM.
With LLSGQGPMK the Kd (HLA-A*03:01; [2]) was 40.2 nM.
With GVCGIRSATR the Kd (HLA-A*31:01; [2]) was no less than 70000 nM and the Kd (HLA-A*68:01; [2]) was 1880 nM.
